Experimental data taken from paper PMC7163869.

Target: Chikungunya virus-like particles (strain 37997) (chikungunya virus (strain 37997))
Test: BLI

Row | Molecule | Kd
1 | Mouse Mxra8 ectodomain 23-296 (from UniProt Q9DBV4 23-296) (domain or fragment) | 66.4 nM
2 | Cattle Δmoo Mxra8 ectodomain (domain or fragment) VLLSSGPSGPATSDRSVVSESTVSWAAGARAVLRCQSPRMVWTQDRLHDRQRVVHWDLSGSKAGGPARRLVDMYSTGEQRVYEPRDRGRLLLPPSAFHDGNFSLFIRAVEETDEGLYTCNLHHHYCHLYESLAVSLEVTDDPRAAGAHWDGEKEVLAVERGAPALLTCVNRAHVWTDRHLEEAQQVVHWDRQPPGVPHDRADRLLDLYASGERRAYGPPFLRDRVAVEADAFARGDFSLLIDPVEPADEGTYSCHLHHHYCGLHERRVFHLRVTEPAARPPPPPRDSPGNGSSHSGAPGPGARDPTLTRGRSVINVIVPEGRAHFFQQ | 72.3 nM
